Assay results reported in paper PMC5562876, “The integration of Gβ and MAPK signaling cascade in zygote development” (Scientific Reports, 2017).
Changes are numbered by the printed parent chain. Names may count otherwise.

B1: AGG2 (purified, pull-down) (natural protein, Arabidopsis thaliana, UniProt Q93V47 1-100, looked up)
chain: MEAGSSNSSGQLSGRVVDTRGKHRIQAELKRLEQEARFLEEELEQLEKMDNASASCKEFLDSVDSKPDPLLPETTGPVNATWDQWFEGPKEAKRCGCSIL
notes: AGG2, G protein gamma subunit 2, Arabidopsis thaliana, At3G22942; fusion protein; source: E. coli, purified (glutathione agarose beads)
B2: AGB1 (purified, pull-down) (natural protein, Arabidopsis thaliana, UniProt P49177 1-377, looked up)
chain: MSVSELKERHAVATETVNNLRDQLRQRRLQLLDTDVARYSAAQGRTRVSFGATDLVCCRTLQGHTGKVYSLDWTPERNRIVSASQDGRLIVWNALTSQKTHAIKLPCAWVMTCAFSPNGQSVACGGLDSVCSIFSLSSTADKDGTVPVSRMLTGHRGYVSCCQYVPNEDAHLITSSGDQTCILWDVTTGLKTSVFGGEFQSGHTADVLSVSISGSNPNWFISGSCDSTARLWDTRAASRAVRTFHGHEGDVNTVKFFPDGYRFGTGSDDGTCRLYDIRTGHQLQVYQPHGDGENGPVTSIAFSVSGRLLFAGYASNNTCYVWDTLLGEVVLDLGLQQDSHRNRISCLGLSADGSALCTGSWDSNLKIWAFGGHRRVI
notes: AGB1, G protein beta subunit, Arabidopsis thaliana, At4G34460; source: E. coli, purified (glutathione agarose beads)
B3: GPA1 (purified, pull-down) (natural protein, Arabidopsis thaliana, UniProt P18064 1-383, looked up)
chain: MGLLCSRSRHHTEDTDENTQAAEIERRIEQEAKAEKHIRKLLLLGAGESGKSTIFKQIKLLFQTGFDEGELKSYVPVIHANVYQTIKLLHDGTKEFAQNETDSAKYMLSSESIAIGEKLSEIGGRLDYPRLTKDIAEGIETLWKDPAIQETCARGNELQVPDCTKYLMENLKRLSDINYIPTKEDVLYARVRTTGVVEIQFSPVGENKKSGEVYRLFDVGGQRNERRKWIHLFEGVTAVIFCAAISEYDQTLFEDEQKNRMMETKELFDWVLKQPCFEKTSFMLFLNKFDIFEKKVLDVPLNVCEWFRDYQPVSSGKQEIEHAYEFVKKKFEELYYQNTAPDRVDRVFKIYRTTALDQKLVKKTFKLVDETLRRRNLLEAGLL
notes: GPA1, G protein alpha subunit, Arabidopsis thaliana, At2G26300; fusion protein; also called WtGPA1; source: E. coli, purified (glutathione agarose beads)
B4: GPA1^Q222L (purified, pull-down) (natural protein, Arabidopsis thaliana, UniProt P18064 1-383, looked up)
chain: B3 chain with Q222L
notes: GPA1, G protein alpha subunit, Arabidopsis thaliana, At2G26300, with Q222L; fusion protein; source: E. coli, purified (glutathione agarose beads)
B5: MKK5 (purified, pull-down) (natural protein, Arabidopsis thaliana, UniProt Q8RXG3 1-348, looked up)
chain: MKPIQSPSGVASPMKNRLRKRPDLSLPLPHRDVALAVPLPLPPPSSSSSAPASSSAISTNISAAKSLSELERVNRIGSGAGGTVYKVIHTPTSRPFALKVIYGNHEDTVRRQICREIEILRSVDHPNVVKCHDMFDHNGEIQVLLEFMDQGSLEGAHIWQEQELADLSRQILSGLAYLHRRHIVHRDIKPSNLLINSAKNVKIADFGVSRILAQTMDPCNSSVGTIAYMSPERINTDLNHGRYDGYAGDVWSLGVSILEFYLGRFPFAVSRQGDWASLMCAICMSQPPEAPATASQEFRHFVSCCLQSDPPKRWSAQQLLQHPFILKATGGPNLRQMLPPPRPLPSAS
notes: MKK5, MAP kinase kinase 5, Arabidopsis thaliana, At3G21220; source: E. coli, purified (glutathione agarose beads)
B6: AGG1 (purified, pull-down) (natural protein, Arabidopsis thaliana, UniProt Q9FDX9 1-98, looked up)
chain: MREETVVYEQEESVSHGGGKHRILAELARVEQEVAFLEKELKEVENTDIVSTVCEELLSVIEKGPDPLLPLTNGPLNLGWDRWFEGPNGGEGCRCLIL
notes: AGG1, G protein gamma subunit 1, Arabidopsis thaliana, At3G63420; fusion protein; source: E. coli, purified (glutathione agarose beads)
B7: MKK4 (purified, pull-down) (natural protein, Arabidopsis thaliana, UniProt O80397 1-366, looked up)
chain: MRPIQSPPGVSVPVKSRPRRRPDLTLPLPQRDVSLAVPLPLPPTSGGSGGSSGSAPSSGGSASSTNTNSSIEAKNYSDLVRGNRIGSGAGGTVYKVIHRPSSRLYALKVIYGNHEETVRRQICREIEILRDVNHPNVVKCHEMFDQNGEIQVLLEFMDKGSLEGAHVWKEQQLADLSRQILSGLAYLHSRHIVHRDIKPSNLLINSAKNVKIADFGVSRILAQTMDPCNSSVGTIAYMSPERINTDLNQGKYDGYAGDIWSLGVSILEFYLGRFPFPVSRQGDWASLMCAICMSQPPEAPATASPEFRHFISCCLQREPGKRRSAMQLLQHPFILRASPSQNRSPQNLHQLLPPPRPLSSSSSPTT
notes: MKK4, MAP kinase kinase 4, Arabidopsis thaliana, At1G51660; source: E. coli, purified (glutathione agarose beads)

Key:
Assay in all cases: pull-down; purified fusion proteins from E. coli incubated with glutathione agarose beads, 25 mM Tris-HCl pH 7.5, 100 mM NaCl, 1 mM DTT, 1 hr; seven washes with 0.1% Triton X-100; eluted with 15 mM GSH; immunoblot
Settings in all cases: both partners purified
[1] = target: B7
[2] = target: T1, MPK6 (purified, pull-down) (Arabidopsis thaliana, UniProt Q39026 1-395)
T1 construct: MPK6, MAP kinase 6, Arabidopsis thaliana, At2G43790; fusion protein; source: E. coli, purified (glutathione agarose beads)

[3] = target: B5
[4] = target: B2

T1 sequence (Q39026 whole entry, the tested form may be a part): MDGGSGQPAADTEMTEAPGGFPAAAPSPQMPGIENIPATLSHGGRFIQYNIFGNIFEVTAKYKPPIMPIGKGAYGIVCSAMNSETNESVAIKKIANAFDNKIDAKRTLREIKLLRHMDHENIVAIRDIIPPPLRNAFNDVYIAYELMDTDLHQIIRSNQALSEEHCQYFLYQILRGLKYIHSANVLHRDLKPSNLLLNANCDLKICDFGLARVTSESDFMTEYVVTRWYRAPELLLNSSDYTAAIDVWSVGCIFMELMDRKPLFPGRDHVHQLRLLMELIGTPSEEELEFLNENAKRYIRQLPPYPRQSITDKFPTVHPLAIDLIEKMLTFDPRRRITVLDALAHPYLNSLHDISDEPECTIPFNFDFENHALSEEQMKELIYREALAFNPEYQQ

| binding result [1] | binding result [2] | binding result [3] | binding result [4] | Binder |
| --- | --- | --- | --- | --- |
| binds | binds | binds |  | B1 |
|  | binds |  |  | B2 |
|  | binds |  |  | B3 |
|  | binds |  |  | B4 |
|  |  |  | binds | B5 |
| binds | binds | binds |  | B6 |
|  |  |  | binds | B7 |
